Tested on: T1, FLAG-Heme1B (human Eme1B, FLAG tagged at the C terminus)
T1 sequence: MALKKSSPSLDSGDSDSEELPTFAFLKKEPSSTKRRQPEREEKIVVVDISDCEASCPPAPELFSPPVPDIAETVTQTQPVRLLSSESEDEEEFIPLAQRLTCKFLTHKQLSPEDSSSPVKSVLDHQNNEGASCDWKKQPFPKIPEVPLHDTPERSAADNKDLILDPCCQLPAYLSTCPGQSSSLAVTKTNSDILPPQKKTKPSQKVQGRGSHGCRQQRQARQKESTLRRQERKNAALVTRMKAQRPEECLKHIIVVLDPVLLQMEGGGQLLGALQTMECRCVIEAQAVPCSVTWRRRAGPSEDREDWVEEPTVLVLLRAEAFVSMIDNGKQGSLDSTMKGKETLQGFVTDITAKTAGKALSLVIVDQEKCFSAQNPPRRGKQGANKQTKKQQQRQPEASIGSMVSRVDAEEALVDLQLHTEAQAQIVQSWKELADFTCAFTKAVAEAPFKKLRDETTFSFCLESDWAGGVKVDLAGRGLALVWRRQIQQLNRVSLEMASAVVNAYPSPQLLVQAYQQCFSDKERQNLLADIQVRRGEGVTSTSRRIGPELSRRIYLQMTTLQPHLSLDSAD

“3HaMus81 (triple hemagglutinin (3Ha) tagged Hmus81), wild type” was tested, and the “endonuclease activity of immune-precipitates on a 3' flap substrate” value was “The activity of 3HaMus81 was greatly increased in cells that had been co-transfected with FLAG-Eme1B”.
